Patent publication US20160324751A1, “METHOD OF PREPARING RECOMBINANT HUMAN TYROSINASE” (Conopco, Inc., d/b/a UNILEVER, priority 2012, published 2016)

Tests used:
[1] = biological target: T1, human tyrosinase prepared using truncated gene (TMRL) (Homo sapiens, UniProt P14679); experiment: In vitro tyrosine to melanin assay; assay type: biochemical; conditions: TMRL (60 μg) + 50 mM Arbutin
T1 construct: The truncated version is defined as a gene whose corresponding protein extends from the N-terminus to the amino acid 472 or lower; made in house; host or cells: HIGHFIVE (BTI-TN-5B1-4) insect cells, baculovirus (PFASTBAC)
T1 sequence (P14679 19-472 limits assumed): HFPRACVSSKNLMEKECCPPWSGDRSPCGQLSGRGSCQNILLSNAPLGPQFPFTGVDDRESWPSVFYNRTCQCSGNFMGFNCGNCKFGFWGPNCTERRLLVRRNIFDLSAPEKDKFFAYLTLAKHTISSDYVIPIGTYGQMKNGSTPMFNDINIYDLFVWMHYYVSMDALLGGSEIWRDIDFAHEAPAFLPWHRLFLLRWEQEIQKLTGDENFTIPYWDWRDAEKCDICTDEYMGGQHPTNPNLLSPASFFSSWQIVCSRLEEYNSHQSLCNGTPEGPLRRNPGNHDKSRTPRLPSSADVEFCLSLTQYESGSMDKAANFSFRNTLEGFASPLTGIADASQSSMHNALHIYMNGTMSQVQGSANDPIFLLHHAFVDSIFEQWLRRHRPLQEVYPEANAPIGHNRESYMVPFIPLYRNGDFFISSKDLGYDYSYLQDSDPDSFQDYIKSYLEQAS
Source text: At the completion of the reaction, samples were photographed and data analyzed further in the same manner described under the DOPA+MBTH section.

human tyrosinase [2] = experiment: DOPA (2 mM) oxidation assay in absence of MBTH, OD450 nm; assay type: biochemical; conditions: 15 μg protein equivalent, OD450 nm after 90 min converted into ratio
Procedure: DOPA oxidation activity was examined by a slightly modified version of the procedure earlier reported by Harris & Winder [Eur. J. Biochem. (1991) 198: 317-326], excluding Perchloric acid and Dimethylformamide but capturing a picture on reaction progress. Separately, in vitro melanin formation assay was carried out for 7 hrs. at 37° C., using a substrate mix (of 0.5 mM L-Tyrosine+15 μM L-DOPA) in 50 mM phosphate buffer (pH 6.8) and using indicated amounts of protein. This assay covers both tyrosine hydroxylation and DOPA oxidation activities together in the same run. Human melanocytic lysate served as the reference positive control and absence of any protein served as the no enzyme negative control (uncatalyzed background reaction) for these reactions. Assay volumes of 0.1 ml were adequate, indicating scalability for enhanced high throughput screening purposes.
When the activity of 15 μg protein equivalent recombinant human tyrosinase samples were tested in DOPA (2 mM) assay (in absence of MBTH), OD450 nm values reached after 90 min. (indication of extent of oxidation) were converted into a ratio form and are tabulated below: […]

[3] = tested on: insect cells expressing FL rHuTyrase; experiment: Visual examination of cell pellet prior to cell lysis; assay type: cell-based; conditions: prior to cell lysis by sonication; control uninfected cells pale
Source text: FIG. 2: Visual examination (prior to cell lysis by sonication) of the samples of cell pellet obtained in the case of insect cells expressing Full (FL) rHuTyrase (Example 1) as compared to the control uninfected cells (Example A).

human tyrosinase [4] = experiment: DOPA+MBTH solution phase tyrosinase enzymatic assay; assay type: biochemical; conditions: gray scale intensity difference to Example D, relative to HML (Example B); 0 = transparent, close to 1 = activity comparable to HML
Procedure: Standard western blot procedure was used to examine the extent of tyrosinase protein expression as well as determine optimal time point to harvest the cells. For scale up work, it was decided to use the insect cell line known as BTI-TN-5B1-4, sold under the tradename HIGHFIVE™ further. 100 ml scale growth of “infected” HIGHFIVE™ cells were carried out and both the spent media as well as the cell pellets were collected. The latter was lyzed by regular sonication method and the activity of the tyrosinase enzyme in various samples were tested using the typical DOPA oxidation and DOPA+MBTH coupling assays.
DOPA oxidation activity was examined by a slightly modified version of the procedure earlier reported by Harris & Winder [Eur. J. Biochem. (1991) 198: 317-326], excluding Perchloric acid and Dimethylformamide but capturing a picture on reaction progress. […]
Example E: Growth media supernatant in which above cells were grown Reaction samples were photographed and converted into gray scale intensity (GSI) by computer software digitization. Numerical differences (di) were calculated between GSI of any sample and that of reference control background sample (Example D). dmax was the maximal difference, that between HML (positive reference control, Example B) and the reference control background sample (Example D).

Molecule: OC[C@H]1O[C@@H](Oc2ccc(O)cc2)[C@H](O)[C@@H](O)[C@@H]1O [Arbutin]
- Scale ratio di/dmax (tyrosinase activity of TMRL with inhibitor) [1]: 0.00

B1: Example G: Commercially sourced E. coli (bacteria) expressed recombinant human tyrosinase (protein, UniProt P14679 19-529, looked up)
Tyrosinase: HFPRACVSSKNLMEKECCPPWSGDRSPCGQLSGRGSCQNILLSNAPLGPQFPFTGVDDRESWPSVFYNRTCQCSGNFMGFNCGNCKFGFWGPNCTERRLLVRRNIFDLSAPEKDKFFAYLTLAKHTISSDYVIPIGTYGQMKNGSTPMFNDINIYDLFVWMHYYVSMDALLGGSEIWRDIDFAHEAPAFLPWHRLFLLRWEQEIQKLTGDENFTIPYWDWRDAEKCDICTDEYMGGQHPTNPNLLSPASFFSSWQIVCSRLEEYNSHQSLCNGTPEGPLRRNPGNHDKSRTPRLPSSADVEFCLSLTQYESGSMDKAANFSFRNTLEGFASPLTGIADASQSSMHNALHIYMNGTMSQVQGSANDPIFLLHHAFVDSIFEQWLRRHRPLQEVYPEANAPIGHNRESYMVPFIPLYRNGDFFISSKDLGYDYSYLQDSDPDSFQDYIKSYLEQASRIWSWLLGAAMVGAVLTALLAGLVSLLCRHKRKQLPEEKQPLLMEKEDYHSLYQSHL
modifications: E. coli expressed
notes: Commercially sourced E. coli (bacteria) expressed recombinant human tyrosinase
- Scale ratio di/dmax (Extent of DOPA oxidation) (human tyrosinase [2]): 0.04

B2: Example 1: Full length recombinant human tyrosinase, synthetic gene codon optimized for baculovirus expression in insect cells (protein, UniProt P14679 1-529, looked up)
chain: MLLAVLYCLLWSFQTSAGHFPRACVSSKNLMEKECCPPWSGDRSPCGQLSGRGSCQNILLSNAPLGPQFPFTGVDDRESWPSVFYNRTCQCSGNFMGFNCGNCKFGFWGPNCTERRLLVRRNIFDLSAPEKDKFFAYLTLAKHTISSDYVIPIGTYGQMKNGSTPMFNDINIYDLFVWMHYYVSMDALLGGSEIWRDIDFAHEAPAFLPWHRLFLLRWEQEIQKLTGDENFTIPYWDWRDAEKCDICTDEYMGGQHPTNPNLLSPASFFSSWQIVCSRLEEYNSHQSLCNGTPEGPLRRNPGNHDKSRTPRLPSSADVEFCLSLTQYESGSMDKAANFSFRNTLEGFASPLTGIADASQSSMHNALHIYMNGTMSQVQGSANDPIFLLHHAFVDSIFEQWLRRHRPLQEVYPEANAPIGHNRESYMVPFIPLYRNGDFFISSKDLGYDYSYLQDSDPDSFQDYIKSYLEQASRIWSWLLGAAMVGAVLTALLAGLVSLLCRHKRKQLPEEKQPLLMEKEDYHSLYQSHL
modifications: full-length recombinant, baculovirus-expressed
notes: Full length recombinant human tyrosinase, synthetic gene codon optimized for baculovirus expression in insect cells
- Colour of cell pellet (melanin like pigment within the cells) [3]: black

B3: Example 3: Sonication lysate supernatant of HIGHFIVE cells expressing FL tyrosinase (protein, UniProt P14679 1-529, looked up)
chain: MLLAVLYCLLWSFQTSAGHFPRACVSSKNLMEKECCPPWSGDRSPCGQLSGRGSCQNILLSNAPLGPQFPFTGVDDRESWPSVFYNRTCQCSGNFMGFNCGNCKFGFWGPNCTERRLLVRRNIFDLSAPEKDKFFAYLTLAKHTISSDYVIPIGTYGQMKNGSTPMFNDINIYDLFVWMHYYVSMDALLGGSEIWRDIDFAHEAPAFLPWHRLFLLRWEQEIQKLTGDENFTIPYWDWRDAEKCDICTDEYMGGQHPTNPNLLSPASFFSSWQIVCSRLEEYNSHQSLCNGTPEGPLRRNPGNHDKSRTPRLPSSADVEFCLSLTQYESGSMDKAANFSFRNTLEGFASPLTGIADASQSSMHNALHIYMNGTMSQVQGSANDPIFLLHHAFVDSIFEQWLRRHRPLQEVYPEANAPIGHNRESYMVPFIPLYRNGDFFISSKDLGYDYSYLQDSDPDSFQDYIKSYLEQASRIWSWLLGAAMVGAVLTALLAGLVSLLCRHKRKQLPEEKQPLLMEKEDYHSLYQSHL
modifications: full-length insect cell lysate
- Scale ratio di/dmax (DOPA + MBTH Reaction) (human tyrosinase [4]): 0.85

B4: Example 6: FL lysate supernatant, 15 μg protein equivalent (protein, UniProt P14679 1-529, looked up)
chain: MLLAVLYCLLWSFQTSAGHFPRACVSSKNLMEKECCPPWSGDRSPCGQLSGRGSCQNILLSNAPLGPQFPFTGVDDRESWPSVFYNRTCQCSGNFMGFNCGNCKFGFWGPNCTERRLLVRRNIFDLSAPEKDKFFAYLTLAKHTISSDYVIPIGTYGQMKNGSTPMFNDINIYDLFVWMHYYVSMDALLGGSEIWRDIDFAHEAPAFLPWHRLFLLRWEQEIQKLTGDENFTIPYWDWRDAEKCDICTDEYMGGQHPTNPNLLSPASFFSSWQIVCSRLEEYNSHQSLCNGTPEGPLRRNPGNHDKSRTPRLPSSADVEFCLSLTQYESGSMDKAANFSFRNTLEGFASPLTGIADASQSSMHNALHIYMNGTMSQVQGSANDPIFLLHHAFVDSIFEQWLRRHRPLQEVYPEANAPIGHNRESYMVPFIPLYRNGDFFISSKDLGYDYSYLQDSDPDSFQDYIKSYLEQASRIWSWLLGAAMVGAVLTALLAGLVSLLCRHKRKQLPEEKQPLLMEKEDYHSLYQSHL
modifications: full-length insect cell lysate
notes: FL lysate supernatant, 15 μg protein equivalent
- Scale ratio di/dmax (Extent of DOPA oxidation) (human tyrosinase [2]): 0.90
